US20200095341A1 (UNIVERSITEIT TWENTE, published 2020)
Blank lines part the entries; values can stand above or below the binder they belong to. Ends that are not written are not given here.

Experiments:
hVEGF (PeproTech) [1] = target: T1, hVEGF (PeproTech) (human, UniProt P15692-4 27-191, limits assumed); assay: immunofluorescence against hVEGF on peptide-functionalized Collagen Meniscus Implant, 1 µg/mL hVEGF
T1 construct: Commercial growth factor; also called ihVEGF; shVEGF

hVEGF (PeproTech) [2] = target: T1, hVEGF (PeproTech); assay: immunofluorescence against hVEGF on peptide-functionalized POLY-TAPE, 1 µg/mL hVEGF
hVEGF (PeproTech) [3] = target: T1, hVEGF (PeproTech); assay: immunofluorescence against hVEGF on peptide-functionalized PCL films, 1 µg/mL hVEGF
hVEGF (PeproTech) [4] = target: T1, hVEGF (PeproTech); assay: immunofluorescence against hVEGF on peptide-functionalized Chondro-Gide, 1 µg/mL hVEGF
hTGFB1 (Peprotech) = hTGFB1 (Peprotech) (human, UniProt P01137 279-390); assay: cell-based or functional assay
hBMP-2 (PeproTech) = hBMP-2 (PeproTech) (human, UniProt P12643 283-396); assay: cell-based or functional assay
endogenous BMP-2 (rat) = target: T2, endogenous BMP-2 (rat) (rat, UniProt P49001 280-393, limits assumed); assay: immunofluorescence against BMP-2 of PCL films implanted subcutaneously in rats for 7 days
T2 construct: also called BMP-2 released during inflammation
T2 sequence (P49001 280-393 limits assumed): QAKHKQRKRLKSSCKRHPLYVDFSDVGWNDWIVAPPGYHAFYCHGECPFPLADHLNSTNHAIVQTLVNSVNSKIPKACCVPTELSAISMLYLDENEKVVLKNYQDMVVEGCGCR

Chain of hBMP-2 (PeproTech) (P12643 283-396 limits assumed): as the sequence (P49001 280-393 limits assumed) above
T1 sequence (P15692 other isoform, or with tags, fused parts or gaps limits assumed): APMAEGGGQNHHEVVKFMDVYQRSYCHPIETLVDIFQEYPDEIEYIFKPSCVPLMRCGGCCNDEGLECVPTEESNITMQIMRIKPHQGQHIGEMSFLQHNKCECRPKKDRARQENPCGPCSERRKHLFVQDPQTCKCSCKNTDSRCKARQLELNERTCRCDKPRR
Chain of hTGFB1 (Peprotech) (P01137 279-390 limits assumed): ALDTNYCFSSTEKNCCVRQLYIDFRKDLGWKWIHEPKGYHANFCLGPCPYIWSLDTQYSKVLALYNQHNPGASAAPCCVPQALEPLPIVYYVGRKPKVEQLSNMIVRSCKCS

- fluorescence signal, fold (reference taken as native CMI incubated with hVEGF) (hVEGF (PeproTech) [1]): 3.3 fold
- fluorescence signal, fold over native POLY-TAPE with hVEGF (hVEGF (PeproTech) [2]): 2.3 fold
- fluorescence signal, fold over oxygen plasma treated POLY-TAPE with hVEGF (hVEGF (PeproTech) [2]): 1.5 fold
- fluorescence intensity, fold over non-functionalized films incubated with hVEGF (hVEGF (PeproTech) [3]): 7 fold
- fluorescence signal, fold over Chondro-Gide functionalized with NHS/EDC and incubated with hVEGF (hVEGF (PeproTech) [4]): 2.2 fold
B1: VEGF-binding peptide KGSWWAPFH (peptide)
peptide: Ac-KGSWWAPFH
modifications: not fully specified (residue 1); also: lysine side chain covalently coupled to film or device
notes: also called SWWAPFH with an extra glycine and lysine at the N-termini

- luciferase activity of TGFB1 reporter cell line (MLEC, PAI-1 promoter), fold over same films without hTGFB1 incubation (hTGFB1 (Peprotech)): 9 fold
B2: TGFB1 binding peptide KGLPLGNSH (peptide)
peptide: Ac-KGLPLGNSH-NH2
modifications: not fully specified (residue 1); also: lysine side chain covalently coupled to PCL film

- luciferase activity of TGFB1 reporter cell line (MLEC, PAI-1 promoter), fold over same films without hTGFB1 incubation (hTGFB1 (Peprotech)): 3 fold
B3: scrambled peptide KGHNLGLPS (peptide)
peptide: Ac-KGHNLGLPS-NH2
modifications: not fully specified (residue 1); also: lysine side chain covalently coupled to PCL film

- ALP produced by C2C12 after 7 days, fold over controls; functionalized films incubated with 5.0 µg hBMP-2 (hBMP-2 (PeproTech)): 12.7 fold
- ALP production by C2C12, ratio to hBMP-2 nonspecifically adsorbed on native films (hBMP-2 (PeproTech)): 2.4 fold
- luciferase of BMP-2 reporter cell line (C2C12 Luc), fold increase; films incubated with 500 ng hBMP-2 (hBMP-2 (PeproTech)): 5.3 fold
- luciferase of BMP-2 reporter cell line (C2C12 Luc, ID1 promoter), normalized to films without hBMP-2; films incubated with 500 ng hBMP-2 (hBMP-2 (PeproTech)): 10.4 fold (normalized luciferase)
- binding result (endogenous BMP-2 (rat)): binds
B4: BMP-2-binding peptide KGYPVHPST (peptide)
peptide: Ac-KGYPVHPST
modifications: not fully specified (residue 1); also: lysine side chain covalently coupled to film or tape
notes: also called YPVHPST with an extra glycine and lysine at the N-termini
